Experimental data as given in the supplement of paper PMC6379048.
pEC50: −log10 of the molar value.

Assays:
Test in all cases: EC50 of free RNA motif oligo competing protein binding to immobilised probe
[1] = target: T1, CELF1 (UniProt Q92879)
T1 sequence: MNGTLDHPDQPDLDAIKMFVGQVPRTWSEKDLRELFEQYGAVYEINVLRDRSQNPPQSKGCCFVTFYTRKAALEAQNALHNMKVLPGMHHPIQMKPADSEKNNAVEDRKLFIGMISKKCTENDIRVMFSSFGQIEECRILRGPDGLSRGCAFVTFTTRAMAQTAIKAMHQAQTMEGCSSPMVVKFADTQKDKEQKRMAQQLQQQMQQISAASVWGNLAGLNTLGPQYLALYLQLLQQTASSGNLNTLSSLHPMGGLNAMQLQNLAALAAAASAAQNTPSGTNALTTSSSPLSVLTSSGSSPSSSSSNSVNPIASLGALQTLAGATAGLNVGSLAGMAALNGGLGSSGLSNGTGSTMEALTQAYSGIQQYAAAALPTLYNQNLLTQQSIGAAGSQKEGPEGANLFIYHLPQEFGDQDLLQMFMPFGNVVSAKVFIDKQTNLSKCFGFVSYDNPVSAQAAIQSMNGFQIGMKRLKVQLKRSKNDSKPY
Protocol: (§1)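 Competition-binding assay: HEK293-FT cell lysate (2.5 mg protein) pre-incubated 1 h at 4°C with free motif-containing RNA oligos (0 to 30 µM, 12 doses), then pulled down with the same 5'-amino-C6 RNA oligos immobilised on NHS-Sepharose beads (30 min, 4°C). Bound proteins were quantified by label-free LC-MS/MS and normalised to the water control. EC50 came from a four-parameter log-logistic fit; Kd = EC50 x depletion factor. Random/reversed control probes are dropped.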

[2] = target: T2, DHX36 (UniProt Q9H2U1)
T2 sequence: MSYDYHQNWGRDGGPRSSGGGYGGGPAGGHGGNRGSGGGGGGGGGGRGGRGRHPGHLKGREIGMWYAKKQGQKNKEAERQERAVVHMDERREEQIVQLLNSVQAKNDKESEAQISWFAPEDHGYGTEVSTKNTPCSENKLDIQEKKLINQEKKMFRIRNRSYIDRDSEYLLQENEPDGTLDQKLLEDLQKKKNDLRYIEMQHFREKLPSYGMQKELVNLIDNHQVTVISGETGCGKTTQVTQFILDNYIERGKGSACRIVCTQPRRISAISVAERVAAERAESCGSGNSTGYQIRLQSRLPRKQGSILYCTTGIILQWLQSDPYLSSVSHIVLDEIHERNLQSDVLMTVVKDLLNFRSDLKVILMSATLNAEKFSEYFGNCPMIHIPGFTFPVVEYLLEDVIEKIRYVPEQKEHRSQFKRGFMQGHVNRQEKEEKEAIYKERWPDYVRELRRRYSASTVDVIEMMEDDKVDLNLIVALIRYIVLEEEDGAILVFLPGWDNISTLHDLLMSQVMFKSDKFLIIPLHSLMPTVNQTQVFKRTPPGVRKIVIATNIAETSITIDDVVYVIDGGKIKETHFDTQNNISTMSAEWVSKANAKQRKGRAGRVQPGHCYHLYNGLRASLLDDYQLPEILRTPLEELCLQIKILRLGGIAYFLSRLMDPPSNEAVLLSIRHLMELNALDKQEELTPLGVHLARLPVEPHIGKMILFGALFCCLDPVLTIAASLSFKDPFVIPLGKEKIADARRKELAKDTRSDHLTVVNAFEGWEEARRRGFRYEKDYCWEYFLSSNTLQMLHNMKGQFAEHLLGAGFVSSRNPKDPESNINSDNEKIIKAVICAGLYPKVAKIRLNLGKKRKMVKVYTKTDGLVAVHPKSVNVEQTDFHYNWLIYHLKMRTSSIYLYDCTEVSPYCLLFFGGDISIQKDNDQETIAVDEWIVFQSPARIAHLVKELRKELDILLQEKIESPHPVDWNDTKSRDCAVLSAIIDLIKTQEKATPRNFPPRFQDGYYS
Protocol: as §1

[3] = target: T3, DIS3L2 (UniProt Q8IYB7)
T3 sequence: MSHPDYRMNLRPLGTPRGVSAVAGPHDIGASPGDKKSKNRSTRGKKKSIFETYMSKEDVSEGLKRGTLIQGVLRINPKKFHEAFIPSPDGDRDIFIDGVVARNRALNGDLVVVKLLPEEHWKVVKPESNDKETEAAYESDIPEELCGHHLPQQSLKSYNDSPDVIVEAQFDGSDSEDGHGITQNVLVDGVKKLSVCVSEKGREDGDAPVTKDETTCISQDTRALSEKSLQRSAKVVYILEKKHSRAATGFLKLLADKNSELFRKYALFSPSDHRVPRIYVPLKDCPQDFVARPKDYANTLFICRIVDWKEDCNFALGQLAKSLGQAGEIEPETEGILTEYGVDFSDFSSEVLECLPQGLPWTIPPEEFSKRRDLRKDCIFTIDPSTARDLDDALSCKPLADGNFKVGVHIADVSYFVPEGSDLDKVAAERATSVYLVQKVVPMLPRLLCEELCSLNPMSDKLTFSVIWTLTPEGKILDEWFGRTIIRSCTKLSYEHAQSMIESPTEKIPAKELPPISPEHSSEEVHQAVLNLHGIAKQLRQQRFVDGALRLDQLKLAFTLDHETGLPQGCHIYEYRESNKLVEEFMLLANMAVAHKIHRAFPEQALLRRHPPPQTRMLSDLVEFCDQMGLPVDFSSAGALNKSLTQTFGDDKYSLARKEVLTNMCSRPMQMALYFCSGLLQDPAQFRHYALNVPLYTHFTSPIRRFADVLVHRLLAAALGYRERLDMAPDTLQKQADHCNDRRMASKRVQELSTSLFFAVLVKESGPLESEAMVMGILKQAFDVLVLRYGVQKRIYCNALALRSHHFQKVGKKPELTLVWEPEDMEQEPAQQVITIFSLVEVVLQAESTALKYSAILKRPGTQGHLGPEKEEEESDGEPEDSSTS
Protocol: as §1

Row | Sequence | pEC50 [1] | pEC50 [2] | pEC50 [3]
1 | UAUUUAU | 6.26 | 6.00 | 6.42
2 | AAUAAA | 6.18 | 5.48 | 5.87
3 | CUGUCCU | 5.17 | 5.30 | 5.93
